Experimental data published in patent publication JP2000166573A.

Target: 抗Fasモノクローナル抗体HFE7A (mouse anti-human Fas monoclonal antibody HFE7A, from hybridoma FERM BP-5828)
Test: peptide (200 μg) preincubated with HFE7A (0.25 μg), then binding to WR19L12a cells by flow cytometry

| Binder | 結合阻害 (percent inhibition) [%] |
| --- | --- |
| KCRCKPNFFC [P110 (synthetic 10-residue peptide of the human Fas extracellular region)] | 60 |
| EINCTRTQNT [P100 (synthetic 10-residue peptide of the human Fas extracellular region)] | 50 |
